Data reported in the Immune Epitope Database (IEDB).

Assays:
HLA-A*02:01 = experiment: IEDB peptide-MHC binding, purified MHC/competitive/fluorescence; filed as Kd, often an IC50 or EC50 that approximates it; ≥ and ≤ were set here for values at or beyond the usual limits of such assays
HLA-A*26:03 = experiment: as above; conditions: source organism: Vaccinia virus Copenhagen
HLA-A*02:03 = experiment: as above
HLA-B*08:03 = experiment: IEDB peptide-MHC binding, purified MHC/direct/fluorescence; filed as Kd, often an IC50 or EC50 that approximates it; ≥ and ≤ were set here for values at or beyond the usual limits of such assays; conditions: source organism: Variola virus
HLA-A*01:01 [1] = experiment: as above; conditions: source organism: Camelpox virus M-96
HLA-B*40:01 [2] = experiment: as above; conditions: source organism: Camelpox virus M-96
HLA-B*48:01 = experiment: as above; conditions: source organism: Camelpox virus M-96
HLA-A*68:02 [3] = experiment: as above; conditions: source organism: Camelpox virus M-96
HLA-B*07:02 [4] = experiment: as above; conditions: source organism: Camelpox virus M-96
HLA-A*11:01 [5] = experiment: as above; conditions: source organism: Camelpox virus M-96
HLA-B*58:01 [6] = experiment: as above; conditions: source organism: Camelpox virus M-96
HLA-A*31:01 = experiment: as above; conditions: source organism: Camelpox virus M-96
HLA-A*26:02 = experiment: as above; conditions: source organism: Variola virus
HLA-B*15:01 [7] = experiment: as above; conditions: source organism: Camelpox virus M-96
HLA-B*57:01 [8] = experiment: as above; conditions: source organism: Camelpox virus M-96
HLA-A*03:01 [9] = experiment: as above; conditions: source organism: Camelpox virus M-96
HLA-B*15:17 [10] = experiment: as above; conditions: source organism: Camelpox virus M-96
HLA-B*18:01 [11] = experiment: as above; conditions: source organism: Camelpox virus M-96
HLA-B*46:01 [12] = experiment: as above; conditions: source organism: Camelpox virus M-96
HLA-A*69:01 = experiment: as above; conditions: source organism: Camelpox virus M-96
HLA-B*08:01 [13] = experiment: as above; conditions: source organism: Variola virus
HLA-A*29:02 = experiment: IEDB peptide-MHC binding, purified MHC/competitive/fluorescence; filed as Kd, often an IC50 or EC50 that approximates it; ≥ and ≤ were set here for values at or beyond the usual limits of such assays; conditions: source organism: Vibrio cholerae
HLA-B*53:01 = experiment: as above; conditions: source organism: Vibrio cholerae
HLA-A*01:01 [14] = experiment: as above; conditions: source organism: Vibrio cholerae
HLA-B*40:01 [15] = experiment: as above; conditions: source organism: Vibrio cholerae
HLA-A*68:02 [16] = experiment: as above; conditions: source organism: Vibrio cholerae
HLA-B*07:02 [17] = experiment: as above; conditions: source organism: Vibrio cholerae
HLA-B*27:05 = experiment: as above; conditions: source organism: Vibrio cholerae
HLA-A*11:01 [18] = experiment: as above; conditions: source organism: Vibrio cholerae
HLA-B*14:02 = experiment: as above; conditions: source organism: Vibrio cholerae
HLA-A*66:01 = experiment: as above; conditions: source organism: Vibrio cholerae
HLA-B*58:01 [19] = experiment: as above; conditions: source organism: Vibrio cholerae
HLA-B*44:02 = experiment: as above; conditions: source organism: Vibrio cholerae
HLA-A*02:19 = experiment: as above; conditions: source organism: Vibrio cholerae
HLA-B*15:01 [20] = experiment: as above; conditions: source organism: Vibrio cholerae
HLA-B*57:01 [21] = experiment: as above; conditions: source organism: Vibrio cholerae
HLA-A*03:01 [22] = experiment: as above; conditions: source organism: Vibrio cholerae
HLA-B*15:17 [23] = experiment: as above; conditions: source organism: Vibrio cholerae
HLA-A*02:12 = experiment: as above; conditions: source organism: Vibrio cholerae
HLA-A*23:01 = experiment: as above; conditions: source organism: Vibrio cholerae
HLA-B*51:01 = experiment: as above; conditions: source organism: Vibrio cholerae
HLA-A*30:02 = experiment: as above; conditions: source organism: Vibrio cholerae
HLA-B*18:01 [24] = experiment: as above; conditions: source organism: Vibrio cholerae
HLA-B*46:01 [25] = experiment: as above; conditions: source organism: Vibrio cholerae
HLA-A*24:03 = experiment: as above; conditions: source organism: Vibrio cholerae
HLA-B*08:01 [26] = experiment: as above; conditions: source organism: Vibrio cholerae
HLA-A*26:01 = experiment: as above; conditions: source organism: Vibrio cholerae
HLA-C*07:02 = experiment: IEDB peptide-MHC binding, purified MHC/direct/fluorescence; filed as Kd, often an IC50 or EC50 that approximates it; ≥ and ≤ were set here for values at or beyond the usual limits of such assays; conditions: source organism: Vibrio cholerae
[27] = source organism: Vaccinia virus Copenhagen
[28] = source organism: Vibrio cholerae

GLYRLNFRR
Kd (HLA-A*02:01; [27]): 0.966 µM
Kd (HLA-A*26:03): ≥ 20 µM
Kd (HLA-A*02:03; [27]): ≥ 20 µM
Kd (HLA-B*08:03): ≥ 20 µM
Kd (HLA-A*01:01 [1]): ≥ 20 µM
Kd (HLA-B*40:01 [2]): ≥ 20 µM
Kd (HLA-B*48:01): ≥ 20 µM
Kd (HLA-A*68:02 [3]): ≥ 20 µM
Kd (HLA-B*07:02 [4]): ≥ 20 µM
Kd (HLA-A*11:01 [5]): 0.237 µM
Kd (HLA-B*58:01 [6]): ≥ 20 µM
Kd (HLA-A*31:01): 0.0017 µM
Kd (HLA-A*26:02): ≥ 20 µM
Kd (HLA-B*15:01 [7]): ≥ 20 µM
Kd (HLA-B*57:01 [8]): ≥ 20 µM
Kd (HLA-A*03:01 [9]): 0.242 µM
Kd (HLA-B*15:17 [10]): ≥ 20 µM
Kd (HLA-B*18:01 [11]): ≥ 20 µM
Kd (HLA-B*46:01 [12]): ≥ 20 µM
Kd (HLA-A*69:01): ≥ 20 µM
Kd (HLA-B*08:01 [13]): ≥ 20 µM

TRAPAPFPL
Kd (HLA-A*29:02): ≥ 20 µM
Kd (HLA-B*53:01): ≥ 5 µM
Kd (HLA-A*01:01 [14]): ≥ 5 µM
Kd (HLA-B*40:01 [15]): ≥ 5 µM
Kd (HLA-A*68:02 [16]): 0.13 µM
Kd (HLA-B*07:02 [17]): ≥ 5 µM
Kd (HLA-B*27:05): 0.0123 µM
Kd (HLA-A*11:01 [18]): ≥ 5 µM
Kd (HLA-A*02:01; [28]): ≥ 20 µM
Kd (HLA-B*14:02): 0.565 µM
Kd (HLA-A*66:01): ≥ 5 µM
Kd (HLA-B*58:01 [19]): ≥ 5 µM
Kd (HLA-B*44:02): ≥ 5 µM
Kd (HLA-A*02:19): ≥ 20 µM
Kd (HLA-B*15:01 [20]): ≥ 20 µM
Kd (HLA-B*57:01 [21]): ≥ 20 µM
Kd (HLA-A*03:01 [22]): ≥ 20 µM
Kd (HLA-B*15:17 [23]): ≥ 20 µM
Kd (HLA-A*02:12): ≥ 20 µM
Kd (HLA-A*02:03; [28]): ≥ 20 µM
Kd (HLA-A*23:01): 3.5 µM
Kd (HLA-B*51:01): ≥ 20 µM
Kd (HLA-A*30:02): ≥ 5 µM
Kd (HLA-B*18:01 [24]): ≥ 20 µM
Kd (HLA-B*46:01 [25]): ≥ 20 µM
Kd (HLA-A*24:03): ≥ 20 µM
Kd (HLA-B*08:01 [26]): ≥ 5 µM
Kd (HLA-A*26:01): ≥ 20 µM
Kd (HLA-C*07:02): 0.045 µM
